Experiment: yeast display, Sf9 membrane polyspecificity reagent, FACS + sequencing; frameworks hold sequencing errors
Outline: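 Nanobodies came from a synthetic yeast display library in Saccharomyces cerevisiae BJ5465, induced with galactose for 36–48 hours and stained for 1 hour at 4 °C with 10% biotinylated, detergent-solubilized Sf9 membrane reagent. Cells were enriched on streptavidin microbeads and then FACS-sorted, with low and high (top ~1%) gates set on anti-HA fluorescence for expression and streptavidin fluorescence for reagent binding. Each polyreactivity label reflects the gate a clone came from. Genes were amplified by colony PCR, sequenced by MiSeq 2 × 250 and filtered by CDR length.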

Sequence | polyreactivity (PSR sort gate)
QVQLVESGGGLVQAGGSLRLSCAASVFTVYGMGWYRQAPGKERELVAAISTGGNTYYADSVKGRFTISRDNAKNTVYLQMNSLKPEDTAVYYCNRRYRYYGLWYGYWGQGTQVTVSS | high polyreactivity
QVQLVESGGGLVQAGGSLRLSCAASVGTFSPNTMGWYRQAPGKERELVAAISSSGSTSYADSVKGRFTISRDNAKNTVYLQMNSLKPEDTAGYFCNADDTISYYASGFDNYDYWGQGTQVTVSS | low polyreactivity
QVQLVESGGGLVQAGGSLRLSCAASVGWYRQAPGKERELVAAISFSGGSTYYADSVKGRFTISRDNAKNTVYLQMNSLKPEDTAVYYCAAENFWQTKEYDYWGQGTQVTVSS | low polyreactivity
QVQLVESGGGLVQAGGSLRLSCAASVLILYYYAMGWYRQAPGKERELVAAISRRDGDTYYADSVKGRFTISRDNAKNTVYLQMNSLKPEDTAVYYCAADRRWSWVFRDDYWGQGTQVTVSS | low polyreactivity
QVQLVESGGGLVQAGGSLRLSCAASVRIFDYNAMGWYRQAPGKERELVAAITSGGSTNYADSVKGRFTISRDNAKNTVYLQMNSLKPEDTAVYYCNAEPETTIDYWGQGTQVTVSS | low polyreactivity
QVQLVESGGGLVQAGGSLRLSCAASVRIFWPYAMGWYRQAPGKERELVAAITLSGGSTYYADSVKGRFTISRDNAKNTVYLQKNCMKPVETAVYYSAGDHKRTWGGDQGKSHGYWGQGTKVTVSS | low polyreactivity
QVQLVESGGGLVQAGGSLRLSCAASVRISESNDMGWYRQAPGKERELVAAISSSGGSTYYADSVKGRFTISRENAKNTVYLQMNSLKPEDTAVYYCNAVYYRTVLKIGVYEYDFWGQGTQVTVSW | low polyreactivity
QVQLVESGGGLVQAGGSLRLSCAASVRTFYIYAMGWYIQAHGKERELVAAITSVGSTNYADSVKGRFTISRDNAKNTVNLQMNSLKPEDTAVYYCAAESTEGTSGDYDYWGQGTQVTVSS | low polyreactivity
QVQLVESGGGLVQAGGSLRLSCAASVRTLPSYAMGWYRQAPGKERELVAAISQSGGSTYYADSVKGRFTISRDNAKNTVYLQMNSLKPEDTAVYYCNAGYYYKYSPRRFDYWGQGTQVTVSS | high polyreactivity
QVQLVESGGGLVQAGGSLRLSCAASVRTSRLYAMGWYRQAPGKERELDASITRGGSTYADSVKGRFTISRDNAKNTVYLQMNSLKPEDTAVDYCNAELYVPPYDDDYWGQGTQVTVSS | high polyreactivity
QVQLVESGGGLVQAGGSLRLSCAASVSTFGRYVMGWYRQAPGKERELVAAISKNAGSTYYADSVKGRFTISRDNAKNTVYVQMNSLKPEDTAVYYCAADWRTKGYDSLGQGTQVTVSS | high polyreactivity
QVQLVESGGGLVQAGGSLRLSCAASVSTFPQYAMGWYRQAPGKERELVAAISWSGGRTYYADSVKGRFTISRDNAKNTVYLQMNSLKPEDTAVFYCAATYPGQYGYNYWGQGTQVTVSS | high polyreactivity
QVQLVESGGGLVQAGGSLRLSCAASVSTFSYNYMGWYRQAPRKERELDAAISSGGSTKYADSVKGRFRISRDNAKNTVYLQMNSLKPEDTAVYYCIKDYPQNPLPASSYYLYDYWGQGTQVTVSS | high polyreactivity
QVQLVESGGGLVQAGGSLRLSCAASVYAMGWYRQAPGKERELVAAITDSGSTNYADSVKGRFTISRDNAKNTVYLQMNTLKPEDTAVYYCNADPYYATGSWARLPLYQYDYWGQGTQVTVSS | low polyreactivity
QVQLVESGGGLVQAGGSLRLSCAASYNAMGWYRQAPGKEREFVAGITQSGGSTYYADSVKGRFTISRDNAKNTVYLQMNSLKAEDTAVYYCAKRLYKWGQGTQVTVSS | low polyreactivity
QVQLVESGGGLVQAGGSLRLSCAATARNFYRYAMAWYRQAPGKERELVARITSAGSTDYADSVKGRFTISRDNAKNTVYLQMNSLKPEDTAVYYCAAFGFSYRTFWYDYWGQGTQVTVSS | high polyreactivity

Sequence | polyreactivity (PSR sort gate)
QVQLVESGGGLVQAGGSLRLSCAATGFIFRYYAMGWYSQAPGKERELVATISSGGGTHYADSVKGRYSISRDNAKNTVYLKMNSLKPEDTAVYYCNARGYRRLRTRVDYWGQGTQVTVSS | high polyreactivity
QVQLVESGGGLVQAGGSLRLSCAATGFTFASYAMRLYRQAAGKETELVAAITWGTGTTSYADSVKGRFTISRDNAKNTVYLQMNSLKPEDTAVYYCATRFRPITYRRRYDYWGQGTQVTVSS | low polyreactivity
QVQLVESGGGLVQAGGSLRLSCAATGGTIYYYAMGWYRQAPGKERELVAAISTSGTSTYYADSVKGRFTISRDNAKNTVYLQMNSLKPEDTAVYYCAARGLRVSSRGYYWGQGTQVTVSS | high polyreactivity
QVQLVESGGGLVQAGGSLRLSCAATGITFQPYTMGWYRQAPGKERELVASISIRGSRTYYADSVKGRFTISRDNAKNTVYLQMNSLKPEDTAVYYCNAPYNHVWAHSYWYDYWGQGTQVTVSS | high polyreactivity
QVQLVESGGGLVQAGGSLRLSCAATGITFYTYAMGWYRQAPGKERELVAAITRSGGSTYYADSVKGRFTISRDNAKNTVYLQMNSLKPEDTAVYYCAADGGYIYWEHLYYSGSDYWGQGTQVTVSS | low polyreactivity
QVQLVESGGGLVQAGGSLRLSCAATGITLYGYFMGWYRQAPGKERELVAAISRSGGSTYYADSVMGRFTISRDNAKNTVYLQMNSLKPEDTAVYYCAKVPRYYYDSEFDYWGQGTQVTVSS | high polyreactivity
QVQLVESGGGLVQAGGSLRLSCAATGLTFWVNAMAWYRQAPGKERELVADITRSGGITNYADSVKGRFTISRDNANNTVYLQMNSLKPEDNAVYYCNADQRVDHDDFDYWGKGTQVTVSS | low polyreactivity
QVQLVESGGGLVQAGGSLRLSCAATGLTFYLNAMGWYRQAPGKEREFVAAINYSVGSTYYADSVKGRFTISRDNAKNTVYLQMNSLKPEDTAVFYCAADGYLYFKVDNEYWGQGTQVTVSS | low polyreactivity
QVQLVESGGGLVQAGGSLRLSCAATGRIFYRNAMGWYRQAPGKERELVAAIRGSGGRTYYADSVKGRFTISRDNAKNTVYLQMNSLKPEDTAVYYCAAYGYYVEHPRGLSGPYDDDYWGQGTQVTVSS | low polyreactivity
QVQLVESGGGLVQAGGSLRLSCAATGRTFRLYAMGWYRQAPGKERELVAAITRGGRTNYADSVKGRFTISRDNAKNTVYLQMNSLKPEDTAVYYCAARYRLPIPGTQYEYWGQGTQVTVSS | low polyreactivity
QVQLVESGGGLVQAGGSLRLSCAATGRTFSSYAMGWYRQAPGKEREFLARISSSRGRTSYADSVKGRFTISRDNAKNTVYVQMNSLKPEDTAVYYCAARPPYRVGIVPLGRREYYWGRGTQVTVSS | high polyreactivity
QVQLVESGGGLVQAGGSLRLSCAATGRTLPPNAMGSYRQAPGKERELVAGITWSGGSTYYADSVKGRFTISRDNAKNTVYLQMNSLKPEDTAVYYCAASRSFPGYGLYYYWGQGTQVTVSS | low polyreactivity
QVQLVESGGGLVQAGGSLRLSCAATGSIDSNALGWYRQAPGKERELVADITSGTPTYADSVKGRFTITRDNAKNTVYLQMNSLKPEDTAVYYCAADIPPWGGDYWGQGTQVTVSS | low polyreactivity
QVQLVESGGGLVQAGGSLRLSCAATGSIFRGYAMGWYRQAPGKERELVAAITSGGSTNYADSVKGRFTISRDNAKNTVYLQMNSLKPEDTAVYYCAKDLALVAPLSDYWGQGTQVTVSW | low polyreactivity
QVQLVESGGGLVQAGGSLRLSCAATGSIFTAYDMGWYRQAPGKERELVAAINVSAGTTYYADSVKGRFTISRDNAKNTVYLQMNSLKPEDTAVYYCATDRSPTPYTRENIYDYWGQGTQVTVSS | low polyreactivity
QVQLVESGGGLVQAGGSLRLSCAATGSIFVGYVMGWYRQAAGKERELVAAISRSGGRTYYADSVKGRFTISRDNAKNTVYLQMNSLKPEDTAVYYCAVRHRFYTAGYDYWGQGTQVTVSS | low polyreactivity
